The results in this text go back to patent publication US20260250404A1 (Genmab, published 2026).

Assay [1] has as its target T1, human FcγRIa on the cell surface (transfected CHO-S cells, M0/M1 macrophages, hMDM, FcγRI effector reporter … (human, UniProt P12314 16-374)).
T1 construct: whole, on cells; also called CD64
As to the kind of experiment: flow cytometry on CHO-S cells transiently expressing human FcγRIa, PE goat anti-human IgG F(ab')2, % PE+ cells. On the technique in general: Flow cytometry measures light scatter and fluorescence of single cells or particles in a stream.

Assay [2] concerns the target T2, recombinant His-tagged human FcγRIIIa, 176-Phe [F] / F158 variant (human, UniProt P08637 17-208).
T2 construct: also called FcγRIIIa-F; FcγRIIIa-F158
As to the kind of experiment: SPR (Biacore 8K), His-tagged FcγR captured on anti-His chip, antibody injected, binding response (RU), n=3. (Surface plasmon resonance follows binding to a sensor surface in real time, without labels.)

Assay [3] has as its target T3, recombinant His-tagged human FcγRIIIa, 176-Val [V] / V158 variant (human, UniProt P08637 17-208).
T3 construct: also called FcγRIIIa-V; FcγRIIIa-V158
The assay is described as above.

The target in assay [4] is cynomolgus monkey PD-1 on transfected CHO-S cells (cynomolgus monkey, UniProt B0LAJ3 25-288). Put plainly: flow cytometry on CHO-S cells transiently transfected with cynomolgus monkey PD-1, PE goat anti-human IgG F(ab')2, gMFI (PE).
The target in assay [5] is T4, recombinant human neonatal Fc receptor FcRn (SinoBiological CT071-H27H-B) (human, UniProt P55899 24-297; P61769 21-119).
T4 construct: Composition of the bought protein is not described
As to the kind of experiment: SPR (Biacore 8K) at pH 6.0; FcRn captured by anti-His, antibody as analyte; average of three measurements; pH 6.0.

Assay [6] concerns the target T5, recombinant His-tagged human FcγRIIa, 167-His [H] / H131 variant (human, UniProt P12318 34-218, limits assumed).
T5 construct: catalogue numbers differ; also called FcγRIIa-H; FcγRIIa-H131
T5 sequence (looked up): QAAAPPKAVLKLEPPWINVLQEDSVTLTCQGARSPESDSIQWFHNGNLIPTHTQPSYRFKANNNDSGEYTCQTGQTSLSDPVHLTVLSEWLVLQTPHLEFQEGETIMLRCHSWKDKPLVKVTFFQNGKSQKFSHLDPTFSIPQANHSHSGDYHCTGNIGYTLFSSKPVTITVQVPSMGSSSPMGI
As to the kind of experiment: SPR (Biacore 8K), His-tagged FcγR captured on anti-His chip, antibody injected, binding response (RU), n=3.

Assay [7] has as its target T6, recombinant His-tagged human FcγRIIa, 167-Arg [R] / R131 variant (human, UniProt P12318 34-218, limits assumed).
T6 construct: catalogue numbers differ; also called FcγRIIa-R; FcγRIIa-R131
T6 sequence (looked up): T5 sequence (looked up) with H134R
The description is as above.

Assay [8] concerns the target T7, recombinant His-tagged human FcγRIIb (human, UniProt P31994 43-217, limits assumed).
T7 sequence (looked up): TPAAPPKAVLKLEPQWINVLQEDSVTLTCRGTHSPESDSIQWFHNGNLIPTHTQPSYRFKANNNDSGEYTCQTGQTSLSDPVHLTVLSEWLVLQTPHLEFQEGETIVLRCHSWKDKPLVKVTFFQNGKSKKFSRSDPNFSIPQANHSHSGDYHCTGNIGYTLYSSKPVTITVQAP
The description is as above.

The target of assay [9] is T8, human complement protein C1q (from normal human serum) (human, UniProt P02745 23-245; P02746 28-253; P02747 29-245).
T8 construct: Native C1q supplied as 20% normal human serum
As to the kind of experiment: flow cytometry, C1q (20% normal human serum) binding to antibody bound on human T cells, FITC anti-C1q.

For assay [10], the target named is T8, human complement protein C1q (from …). As to the kind of experiment: flow cytometry, C1q (20% normal human serum) binding to antibody bound on human T cells, FITC anti-C1q, median MFI FITC.
For assay [11], the target named is T9, recombinant cynomolgus monkey CD27-Fc fusion protein (R&D systems, Cat #9904-CD-100) (cynomolgus monkey, UniProt P26842 21-192 (human entry), limits assumed).
T9 construct: Bought protein; also called Cyno CD27-Fc; not shown: Fc part of the fusion; not described
T9 chain: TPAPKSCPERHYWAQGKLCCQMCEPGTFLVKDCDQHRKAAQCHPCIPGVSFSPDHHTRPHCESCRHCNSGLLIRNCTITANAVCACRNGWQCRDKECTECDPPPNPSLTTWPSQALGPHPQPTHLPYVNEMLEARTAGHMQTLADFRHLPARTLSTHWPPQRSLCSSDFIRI
As to the kind of experiment: BLI (Octet HTX); cyno CD27-Fc on AR2G sensor, antibody monovalent for CD27 in solution; 1:1 model. A general note: In BLI a coated tip is dipped into the sample, and binding shifts an interference pattern.

The target in assay [12] is T10, recombinant His-tagged human CD27 protein (Sino Biological, Cat #10039-H08B1) (human, UniProt P26842 20-192).
T10 construct: Bought protein; also called Human CD27-His; not shown: His tag
As to the kind of experiment: BLI (Octet HTX); CD27-His on anti-Penta-HIS sensor, antibody monovalent for CD27 in solution; 1:1 model.

Numbering of substitutions follows the chain as printed. Numbers in names are those of the source.

T8 sequence (P02745 23-245, chain 1 of 3): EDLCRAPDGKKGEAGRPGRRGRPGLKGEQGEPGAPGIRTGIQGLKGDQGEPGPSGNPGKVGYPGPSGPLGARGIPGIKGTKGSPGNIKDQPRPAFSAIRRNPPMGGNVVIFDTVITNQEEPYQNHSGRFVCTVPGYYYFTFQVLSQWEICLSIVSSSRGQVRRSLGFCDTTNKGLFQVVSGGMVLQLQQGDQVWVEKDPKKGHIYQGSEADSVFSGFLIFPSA
T8 sequence (P02746 28-253, chain 2 of 3): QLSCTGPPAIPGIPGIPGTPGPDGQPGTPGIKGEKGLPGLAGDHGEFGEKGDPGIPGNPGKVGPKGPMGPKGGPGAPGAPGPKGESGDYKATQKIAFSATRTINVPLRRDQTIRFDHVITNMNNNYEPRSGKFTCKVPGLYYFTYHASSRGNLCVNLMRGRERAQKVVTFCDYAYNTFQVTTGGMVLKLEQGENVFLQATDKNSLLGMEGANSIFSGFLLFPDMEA
T8 sequence (P02747 29-245, chain 3 of 3): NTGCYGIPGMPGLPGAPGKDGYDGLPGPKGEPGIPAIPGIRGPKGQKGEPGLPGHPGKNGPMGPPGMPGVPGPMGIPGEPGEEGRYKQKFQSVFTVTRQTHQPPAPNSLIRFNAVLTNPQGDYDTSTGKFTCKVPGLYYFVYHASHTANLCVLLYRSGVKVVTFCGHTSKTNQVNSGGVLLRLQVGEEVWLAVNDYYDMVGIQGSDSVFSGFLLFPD
T1 sequence (P12314 16-374): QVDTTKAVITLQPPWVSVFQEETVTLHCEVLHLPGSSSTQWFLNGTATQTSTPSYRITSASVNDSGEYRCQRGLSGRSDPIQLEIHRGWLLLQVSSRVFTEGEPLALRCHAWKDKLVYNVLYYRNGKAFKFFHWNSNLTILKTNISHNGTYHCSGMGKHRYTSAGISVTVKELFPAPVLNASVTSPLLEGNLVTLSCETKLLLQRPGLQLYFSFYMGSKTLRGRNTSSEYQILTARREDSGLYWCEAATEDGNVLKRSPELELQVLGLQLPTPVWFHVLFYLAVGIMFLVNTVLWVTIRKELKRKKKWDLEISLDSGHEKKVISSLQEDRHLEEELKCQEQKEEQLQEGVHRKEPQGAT
T3 sequence (P08637 other isoform, or with tags, fused parts or gaps mutant limits assumed): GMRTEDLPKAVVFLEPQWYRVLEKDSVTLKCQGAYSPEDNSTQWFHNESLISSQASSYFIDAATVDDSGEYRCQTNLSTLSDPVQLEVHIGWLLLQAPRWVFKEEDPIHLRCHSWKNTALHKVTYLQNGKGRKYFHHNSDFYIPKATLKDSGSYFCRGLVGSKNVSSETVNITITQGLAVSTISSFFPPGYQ
T2 sequence (P08637 17-208 limits assumed, change not shown): as the sequence (P08637 other isoform, or with tags, fused parts or gaps mutant limits assumed) above, with V160F counted along it
Chain of cynomolgus monkey PD-1 on transfected CHO-S cells (B0LAJ3 entry or part of it limits assumed): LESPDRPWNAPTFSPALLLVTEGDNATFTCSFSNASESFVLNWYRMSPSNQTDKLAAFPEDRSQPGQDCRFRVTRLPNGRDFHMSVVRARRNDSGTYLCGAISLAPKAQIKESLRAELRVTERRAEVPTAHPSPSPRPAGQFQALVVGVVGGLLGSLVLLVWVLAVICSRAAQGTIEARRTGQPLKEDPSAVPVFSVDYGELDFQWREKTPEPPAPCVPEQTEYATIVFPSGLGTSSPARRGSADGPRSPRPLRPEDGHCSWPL

B1: pembrolizumab (antibody, human IgG4 S228P, kappa)
heavy: not shown
light: EIVLTQSPATLSLSPGERATLSCRASKGVSTSGYSYLHWYQQKPGQAPRLLIYLASYLESGVPARFSGSGSGTDFTLTISSLEPEDFAVYYCQHSRDLPLTFGGGTKVEIKRTVAAPSVFIFPPSDEQLKSGTASVVCLLNNFYPREAKVQWKVDNALQSGNSQESVTEQDSKDSTYSLSSTLTLSKADYEKHKVYACEVTHQGLSSPVTKSFNRGEC
notes: also called Keytruda
Regarding B1, the entries for the “EC50 (read off the curve)” value in assay [1] and in assay [4] were about 0.8 µg/mL and about 0.05 µg/mL, respectively. Also, the binding result in assay [2] and in assay [3] was “binds” in each case.

B2: nivolumab (antibody, human IgG4 S228P, kappa)
heavy: not shown
light: not shown
notes: also called Opdivo
Consider B2, for which the Kd in assay [5] worked out at 133 nM. Moreover, in [5], the koff is 0.0689 s⁻¹. The kon in assay [5] was determined as 518000 M⁻¹ s⁻¹. In addition, the binding result in [6], in assay [7], in assay [8] and in [3] was “binds” throughout. Further, the concentration for a half-maximal effect (EC50 (read off the curve)) in [1] is about 0.2 µg/mL.

B3: IgG1-CD27-A (wild-type IgG1 Fc) (antibody)
heavy: not shown
light: QSALTQPASVSGSPGQSITISCTGTSSDVYYYNYVSWYQQHPGRAPKLVIYDVSNRPSGVSNRFSGSKSGNTASLTISGLRAEDEADYYCSSYTVNRVWVFGGGTKLTVLGQPKAAPSVTLFPPSSEELQANKATLVCLISDFYPGAVTVAWKADSSPVKAGVETTTPSKQSNNKYAASSYLSLTPEQWKSHRSYSCQVTHEGSTVEKTVAPTECS
notes: also called WT IgG1-CD27-A; IgG-CD27-A; copies: 2 + 2
For the molecule B3, the binding result in assay [9] was “no binding (tested: 15 µg/mL)”.

B4: IgG1-CD27-A-E430G (antibody)
heavy: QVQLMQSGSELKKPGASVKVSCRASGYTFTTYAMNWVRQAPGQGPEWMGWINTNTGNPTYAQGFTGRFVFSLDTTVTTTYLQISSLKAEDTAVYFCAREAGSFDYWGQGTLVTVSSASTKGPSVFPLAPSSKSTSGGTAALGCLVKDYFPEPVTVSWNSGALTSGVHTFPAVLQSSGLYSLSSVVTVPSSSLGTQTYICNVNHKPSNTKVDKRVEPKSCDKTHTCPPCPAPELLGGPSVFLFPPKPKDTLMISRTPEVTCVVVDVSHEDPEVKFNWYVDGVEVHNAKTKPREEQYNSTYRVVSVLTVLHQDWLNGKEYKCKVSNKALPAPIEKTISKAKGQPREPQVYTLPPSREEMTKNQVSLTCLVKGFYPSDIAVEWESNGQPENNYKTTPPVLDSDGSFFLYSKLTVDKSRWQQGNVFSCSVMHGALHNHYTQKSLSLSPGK
light: B3 light
notes: Human IgG1 with E430G (Eu numbering); copies: 2 + 2
Regarding B4, the “EC50 (read off the curve)” value in assay [10] is about 0.03 µg/mL.

B5: IgG1-CD27-A-E345R (antibody)
heavy: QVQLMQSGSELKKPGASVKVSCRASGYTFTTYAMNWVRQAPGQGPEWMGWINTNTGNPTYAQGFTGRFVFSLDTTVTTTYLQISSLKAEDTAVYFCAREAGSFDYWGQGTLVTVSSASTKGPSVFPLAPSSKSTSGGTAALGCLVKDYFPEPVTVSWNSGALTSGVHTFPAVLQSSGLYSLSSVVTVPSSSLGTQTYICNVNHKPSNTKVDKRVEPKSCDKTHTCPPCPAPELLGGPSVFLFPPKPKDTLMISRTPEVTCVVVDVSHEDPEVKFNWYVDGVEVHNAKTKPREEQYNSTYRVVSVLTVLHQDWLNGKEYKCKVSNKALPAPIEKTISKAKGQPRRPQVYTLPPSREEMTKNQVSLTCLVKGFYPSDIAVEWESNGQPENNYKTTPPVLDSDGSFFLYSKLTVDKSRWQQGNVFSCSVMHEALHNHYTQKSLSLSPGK
light: B3 light
notes: Human IgG1 with E345R (Eu numbering); also called IgG-CD27-A-E345R; copies: 2 + 2
B5: the binding result in assay [10] was “binds”.

B6: dostarlimab (antibody)
chain 1: not shown
chain 2: DIQLTQSPSFLSAYVGDRVTITCKASQDVGTAVAWYQQKPGKAPKLLIYWASTLHTGVPSRFSGSGSGTEFTLTISSLQPEDFATYYCQHYSSYPWTFGQGTKLEIKRTVAAPSVFIFPPSDEQLKSGTASVVCLLNNFYPREAKVQWKVDNALQSGNSQESVTEQDSKDSTYSLSSTLTLSKADYEKHKVYACEVTHQGLSSPVTKSFNRGEC
Consider B6, for which, in assay [1], the “EC50 (read off the curve)” value is about 0.2 µg/mL.

B7: IgG1-CD27-A as bispecific antibody with one CD27-specific Fab-arm and one non-binding Fab-arm (bispecific antibody)
chain 1: QVQLMQSGSELKKPGASVKVSCRASGYTFTTYAMNWVRQAPGQGPEWMGWINTNTGNPTYAQGFTGRFVFSLDTTVTTTYLQISSLKAEDTAVYFCAREAGSFDYWGQGTLVTVSS
chain 2: QSALTQPASVSGSPGQSITISCTGTSSDVYYYNYVSWYQQHPGRAPKLVIYDVSNRPSGVSNRFSGSKSGNTASLTISGLRAEDEADYYCSSYTVNRVWVFGGGTKLTVL
chain 3: QVQLVQSGAEVKKPGASVKVSCQASGYRFSNFVIHWVRQAPGQRFEWMGWINPYNGNKEFSAKFQDRVTFTADTSANTAYMELRSLRSADTAVYYCARVGPYSWDDSPQDNYYMDVWGKGTTVIVSSASTKGPSVFPLAPSSKSTSGGTAALGCLVKDYFPEPVTVSWNSGALTSGVHTFPAVLQSSGLYSLSSVVTVPSSSLGTQTYICNVNHKPSNTKVDKRVEPKSCDKTHTCPPCPAPEFEGGPSVFLFPPKPKDTLMISRTPEVTCVVVAVSHEDPEVKFNWYVDGVEVHNAKTKPREEQYNSTYRVVSVLTVLHQDWLNGKEYKCKVSNKALPAPIEKTISKAKGQPREPQVYTLPPSREEMTKNQVSLTCLVKGFYPSDIAVEWESNGQPENNYKTTPPVLDSDGSFFLYSRLTVDKSRWQQGNVFSCSVMHEALHNHYTQKSLSLSPG
chain 4: EIVLTQSPGTLSLSPGERATFSCRSSHSIRSRRVAWYQHKPGQAPRLVIHGVSNRASGISDRFSGSGSGTDFTLTITRVEPEDFALYYCQVYGASSYTFGQGTKLERKRTVAAPSVFIFPPSDEQLKSGTASVVCLLNNFYPREAKVQWKVDNALQSGNSQESVTEQDSKDSTYSLSSTLTLSKADYEKHKVYACEVTHQGLSSPVTKSFNRGEC
Turning to B7, in assay [11], the Kd was determined as 120 nM, the koff stood at 0.02 s⁻¹ and the kon amounted to 170000 M⁻¹ s⁻¹. Besides, in assay [12], the dissociation constant (Kd) stood at 130 nM, the dissociation rate constant (koff) is 0.018 s⁻¹ and the kon stood at 130000 M⁻¹ s⁻¹.

The term EC50 (read off the curve) denotes the concentration that produces a half-maximal response. In general, Kd refers to the equilibrium constant for the complex coming apart. As a reminder, the koff is a measure of how fast the partners let go of each other. Broadly, the kon is a measure of how fast the partners come together.
